Measured values taken from paper PMC5866560 (Proceedings of the National Academy of Sciences of the …, 2018).

Target: T1, recombinant Bri2 protein covering residues 113 to 231 comprising the BRICHOS domain (human, UniProt Q9Y287-1 113-231)
T1 sequence (looked up): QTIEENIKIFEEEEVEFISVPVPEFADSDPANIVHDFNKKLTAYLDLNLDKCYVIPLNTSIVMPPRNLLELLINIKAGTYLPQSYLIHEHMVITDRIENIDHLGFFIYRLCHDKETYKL
Assay: immuno-electron microscopy

KCNTATCATQRLANFLVHSSNNFGAILSSTNVGSNTY (peptide, UniProt P10997 34-70, looked up) [islet amyloid polypeptide IAPP 1–37]
binding result: binds
